What all share (experiment): cell-based or functional assay
The target of experiment [1] is T1, GLP-1 receptor (UniProt P43220 24-463, limits assumed).
Experiment [2] has as its target T2, glucagon receptor (UniProt P47871 26-477, limits assumed).
For experiment [3], the target named is T1, GLP-1 receptor. This is another data set of the same source.
Experiment [4] deals with T3, GIP receptor (UniProt P48546 22-466, limits assumed).
T3 sequence (looked up): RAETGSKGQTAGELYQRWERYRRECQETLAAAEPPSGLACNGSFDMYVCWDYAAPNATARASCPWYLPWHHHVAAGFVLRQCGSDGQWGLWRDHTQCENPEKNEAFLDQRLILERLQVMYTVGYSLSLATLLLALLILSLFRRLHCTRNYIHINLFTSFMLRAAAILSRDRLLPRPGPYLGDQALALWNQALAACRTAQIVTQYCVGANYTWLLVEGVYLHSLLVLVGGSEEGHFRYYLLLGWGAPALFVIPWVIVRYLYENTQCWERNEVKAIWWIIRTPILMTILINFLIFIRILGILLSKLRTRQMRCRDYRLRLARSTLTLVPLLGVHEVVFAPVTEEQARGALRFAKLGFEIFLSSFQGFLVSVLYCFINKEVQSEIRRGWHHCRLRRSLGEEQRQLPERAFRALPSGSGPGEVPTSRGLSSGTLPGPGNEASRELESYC

The target in experiment [5] is T2, glucagon receptor. This is another data set of the same source.
Experiment [6] deals with T1, GLP-1 receptor. The source holds these as a separate data set.
Experiment [7] concerns the target T3, GIP receptor. This is another data set of the same source.
Experiment [8] deals with T2, glucagon receptor. The source holds these as a separate data set.

Consider four molecules from US20120238493A1 (INDIANA UNIVERSITY RESEARCH AND TECHNOLOGY, published 2012).

Like-named read-outs stand apart in the source and are kept apart here. *1 amine or outer side, *2 acyl side, *3 side chain or, on linkers, in order; H or OH if unused. Where no end group is shown, it is not given here. Side-chain parts run from the residue outwards. [ ]: non-standard residue; d: D form. The star is where a group is joined. γGlu = O=C(O)[C@H](CCC(=O)[*:2])N[*:1]; Palmitoyl = CCCCCCCCCCCCCCCC(=O)*; Aib = CC(C)(N)C(=O)O

T2 sequence (P47871 26-477 limits assumed): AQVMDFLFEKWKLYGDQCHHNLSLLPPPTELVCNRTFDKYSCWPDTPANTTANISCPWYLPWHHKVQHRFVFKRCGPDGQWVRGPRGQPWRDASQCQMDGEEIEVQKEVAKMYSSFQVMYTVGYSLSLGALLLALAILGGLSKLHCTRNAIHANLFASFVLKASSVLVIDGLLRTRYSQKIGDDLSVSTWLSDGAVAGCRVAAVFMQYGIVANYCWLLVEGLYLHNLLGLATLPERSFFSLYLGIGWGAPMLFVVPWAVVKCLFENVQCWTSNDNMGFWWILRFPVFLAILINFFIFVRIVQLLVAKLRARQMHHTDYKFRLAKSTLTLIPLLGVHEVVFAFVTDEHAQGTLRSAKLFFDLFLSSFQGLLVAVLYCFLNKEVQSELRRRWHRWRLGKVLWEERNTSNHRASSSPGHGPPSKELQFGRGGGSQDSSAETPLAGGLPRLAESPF

B1: peptide of SEQ ID NO: 212 (peptide)
peptide: H[Aib]QGTFTSDYSKYLDERAAQDFVQWLLDGGPSSGAPPPSY(Palmitoyl)G-NH2
modifications: also: Y40 O-2palmitic acid, exact structure not given here
Turning to B1, the “EC50 (cAMP reporter)” value with GLP-1 receptor [1] was found to be 4 pM; in the experiment with glucagon receptor [2] it was 7 pM.

B2: mt-405 (SEQ ID NO: 14) (peptide)
peptide: Y[Aib]QGTFTSDYSKYLDEIHQKDFVNWLLAQ-NH2
modifications: not fully specified (residue 20)
With B2, the “EC50 (cAMP reporter)” value with GLP-1 receptor [3] was 2.2 pM; in the experiment with GIP receptor [4], 3.9 pM; in the experiment with glucagon receptor [5] it was 9.6 pM. The “relative activity (to native hormone)” value with GLP-1 receptor [3] is 717%; in the experiment with GIP receptor [4], 425%; in the experiment with glucagon receptor [5], 797%.

B3: peptide of SEQ ID NO: 90 (peptide)
peptide: H[Aib]QGTFTSDK([γGlu-γGlu-Palmitoyl])SKYLDERAAQDFVQWLLDGGPSSGAPPPS-NH2
modifications: N-terminus assumed
SMILES: CCCCCCCCCCCCCCCC(=O)N[C@@H](CCC(=O)N[C@@H](CCC(=O)NCCCC[C@H](NC(=O)[C@H](CC(=O)O)NC(=O)[C@H](CO)NC(=O)[C@@H](NC(=O)[C@H](Cc1ccccc1)NC(=O)[C@@H](NC(=O)CNC(=O)[C@H](CCC(N)=O)NC(=O)C(C)(C)NC(=O)[C@@H](N)Cc1c[nH]cn1)[C@@H](C)O)[C@@H](C)O)C(=O)N[C@@H](CO)C(=O)N[C@@H](CCCCN)C(=O)N[C@@H](Cc1ccc(O)cc1)C(=O)N[C@@H](CC(C)C)C(=O)N[C@@H](CC(=O)O)C(=O)N[C@@H](CCC(=O)O)C(=O)N[C@@H](CCCNC(=N)N)C(=O)N[C@@H](C)C(=O)N[C@@H](C)C(=O)N[C@@H](CCC(N)=O)C(=O)N[C@@H](CC(=O)O)C(=O)N[C@@H](Cc1ccccc1)C(=O)N[C@H](C(=O)N[C@@H](CCC(N)=O)C(=O)N[C@@H](Cc1c[nH]c2ccccc12)C(=O)N[C@@H](CC(C)C)C(=O)N[C@@H](CC(C)C)C(=O)N[C@@H](CC(=O)O)C(=O)NCC(=O)NCC(=O)N1CCC[C@H]1C(=O)N[C@@H](CO)C(=O)N[C@@H](CO)C(=O)NCC(=O)N[C@@H](C)C(=O)N1CCC[C@H]1C(=O)N1CCC[C@H]1C(=O)N1CCC[C@H]1C(=O)N[C@@H](CO)C(N)=O)C(C)C)C(=O)O)C(=O)O
Regarding B3, the “EC50 (cAMP reporter)” value in the experiment with GLP-1 receptor [6] was found to be 2.7 pM; with GIP receptor [7], 0.017 nM; with glucagon receptor [8], 0.0056 nM.

B4: peptide of SEQ ID NO: 91 (peptide)
peptide: Y[Aib]QGTFTSDK([γGlu-γGlu-Palmitoyl])SIYLDKQAA[Aib]EFVNWLLDGGPSSGAPPPS-NH2
modifications: N-terminus assumed
SMILES: CCCCCCCCCCCCCCCC(=O)N[C@@H](CCC(=O)N[C@@H](CCC(=O)NCCCC[C@H](NC(=O)[C@H](CC(=O)O)NC(=O)[C@H](CO)NC(=O)[C@@H](NC(=O)[C@H](Cc1ccccc1)NC(=O)[C@@H](NC(=O)CNC(=O)[C@H](CCC(N)=O)NC(=O)C(C)(C)NC(=O)[C@@H](N)Cc1ccc(O)cc1)[C@@H](C)O)[C@@H](C)O)C(=O)N[C@@H](CO)C(=O)N[C@H](C(=O)N[C@@H](Cc1ccc(O)cc1)C(=O)N[C@@H](CC(C)C)C(=O)N[C@@H](CC(=O)O)C(=O)N[C@@H](CCCCN)C(=O)N[C@@H](CCC(N)=O)C(=O)N[C@@H](C)C(=O)N[C@@H](C)C(=O)NC(C)(C)C(=O)N[C@@H](CCC(=O)O)C(=O)N[C@@H](Cc1ccccc1)C(=O)N[C@H](C(=O)N[C@@H](CC(N)=O)C(=O)N[C@@H](Cc1c[nH]c2ccccc12)C(=O)N[C@@H](CC(C)C)C(=O)N[C@@H](CC(C)C)C(=O)N[C@@H](CC(=O)O)C(=O)NCC(=O)NCC(=O)N1CCC[C@H]1C(=O)N[C@@H](CO)C(=O)N[C@@H](CO)C(=O)NCC(=O)N[C@@H](C)C(=O)N1CCC[C@H]1C(=O)N1CCC[C@H]1C(=O)N1CCC[C@H]1C(=O)N[C@@H](CO)C(N)=O)C(C)C)[C@@H](C)CC)C(=O)O)C(=O)O
As for B4, the entries for the “EC50 (cAMP reporter)” value with GLP-1 receptor [6], with GIP receptor [7] and with glucagon receptor [8] were 8 pM, 0.005 nM and 0.073 nM, respectively.
